In patent US11419921B2, “Methods of treating neurological disorders” (EnClear Therapies, Inc., priority 2018, dated 2022):

System: (GR)10
Test: Cleavage of (GR)10 by enzymes in solution (PBS with CaCl2 and MgCl2), LC/MS of GR repeats
Type: biochemical
Details: (GR)10 50 μM
Description: • (GR)10 dipeptide (also (GR)8, (GR)6, (GR)4, (GR)2) were synthetized by solid-phase synthesis by CanPeptide; All peptides are uncapped and supplied lyophilized with TFA as counter ions. Purity was always above 95%. • Buffer: PBS buffer containing CaCl2 and MgCl2. • Stock solution of enzyme (e.g., 10 mg/mL) (prepared per manufacturer instructions) in PBS. Activators added as necessary. • Working solution of protein of the desired concentration (e.g., 100 μg/mL) prepared immediately before use by diluting the stock solution (e.g., 5 μL of 10 mg/mL stock solution) in PBS buffer (e.g., in 495 μL of PBS). Exemplary Procedure Using 50 μM Concentrations of (GR)10
25 μL of a 100 μM solution of (GR)10 was added to each well of a 96-well plate. 25 μL of a solution of enzyme (two times the desired final enzyme concentration) was added, and the plates were incubated at room temperature. At the specified time points (5 minutes, 10 minutes, 30 minutes, 60 minutes, and 180 minutes) 2.5 μL of a 10% TFA solution were added to stop the reaction. For the time 0 min well, the TFA was added to the well before addition of the enzyme. After last time point, all samples were further diluted with 150 μL of dilution solution. The quenched reaction mixtures were analyzed by LC/MS to determine the concentration of GR repeats of different lengths.
The chromatography and mass spectrometry conditions utilized are shown in Table 2 and Table 3, respectively.

(GR)1 concentration (enzyme 0.25 μg/mL, 0 min): BLQ | (GR)2 concentration (enzyme 0.25 μg/mL, 0 min): BLQ | (GR)4 concentration (enzyme 0.25 μg/mL, 0 min): BLQ | (GR)6 concentration (enzyme 0.25 μg/mL, 0 min): BLQ | (GR)8 concentration (enzyme 0.25 μg/mL, 0 min): 0.3 µM | (GR)10 concentration (enzyme 0.25 μg/mL, 0 min): 44.9 µM | (GR)1 concentration (enzyme 0.25 μg/mL, 2.5 min): BLQ | (GR)2 concentration (enzyme 0.25 μg/mL, 2.5 min): BLQ | (GR)4 concentration (enzyme 0.25 μg/mL, 2.5 min): BLQ | (GR)6 concentration (enzyme 0.25 μg/mL, 2.5 min): BLQ | (GR)8 concentration (enzyme 0.25 μg/mL, 2.5 min): BLQ | (GR)10 concentration (enzyme 0.25 μg/mL, 2.5 min): 55.8 µM | (GR)1 concentration (enzyme 0.25 μg/mL, 5 min): 0.1 µM | (GR)2 concentration (enzyme 0.25 μg/mL, 5 min): BLQ | (GR)4 concentration (enzyme 0.25 μg/mL, 5 min): BLQ | (GR)6 concentration (enzyme 0.25 μg/mL, 5 min): BLQ | (GR)8 concentration (enzyme 0.25 μg/mL, 5 min): BLQ | (GR)10 concentration (enzyme 0.25 μg/mL, 5 min): 54.4 µM | (GR)1 concentration (enzyme 0.25 μg/mL, 10 min): 0.2 µM | (GR)2 concentration (enzyme 0.25 μg/mL, 10 min): BLQ | (GR)4 concentration (enzyme 0.25 μg/mL, 10 min): BLQ | (GR)6 concentration (enzyme 0.25 μg/mL, 10 min): BLQ | (GR)8 concentration (enzyme 0.25 μg/mL, 10 min): BLQ | (GR)10 concentration (enzyme 0.25 μg/mL, 10 min): 50.3 µM | (GR)1 concentration (enzyme 0.25 μg/mL, 30 min): 0.6 µM | (GR)2 concentration (enzyme 0.25 μg/mL, 30 min): 0.2 µM | (GR)4 concentration (enzyme 0.25 μg/mL, 30 min): 0.1 µM | (GR)6 concentration (enzyme 0.25 μg/mL, 30 min): BLQ | (GR)8 concentration (enzyme 0.25 μg/mL, 30 min): 0.3 µM | (GR)10 concentration (enzyme 0.25 μg/mL, 30 min): 55.1 µM | (GR)1 concentration (enzyme 0.25 μg/mL, 60 min): 1.0 µM | (GR)2 concentration (enzyme 0.25 μg/mL, 60 min): 0.3 µM | (GR)4 concentration (enzyme 0.25 μg/mL, 60 min): BLQ | (GR)6 concentration (enzyme 0.25 μg/mL, 60 min): BLQ | (GR)8 concentration (enzyme 0.25 μg/mL, 60 min): 0.3 µM | (GR)10 concentration (enzyme 0.25 μg/mL, 60 min): 56.3 µM | (GR)1 concentration (enzyme 10 μg/mL, 0 min): BLQ | (GR)2 concentration (enzyme 10 μg/mL, 0 min): BLQ | (GR)4 concentration (enzyme 10 μg/mL, 0 min): BLQ | (GR)6 concentration (enzyme 10 μg/mL, 0 min): BLQ | (GR)8 concentration (enzyme 10 μg/mL, 0 min): BLQ | (GR)10 concentration (enzyme 10 μg/mL, 0 min): 49.4 µM | (GR)1 concentration (enzyme 10 μg/mL, 2.5 min): 3.0 µM | (GR)2 concentration (enzyme 10 μg/mL, 2.5 min): 0.5 µM | (GR)4 concentration (enzyme 10 μg/mL, 2.5 min): 0.6 µM | (GR)6 concentration (enzyme 10 μg/mL, 2.5 min): 0.5 µM | (GR)8 concentration (enzyme 10 μg/mL, 2.5 min): 0.6 µM | (GR)10 concentration (enzyme 10 μg/mL, 2.5 min): 55.4 µM | (GR)1 concentration (enzyme 10 μg/mL, 5 min): 5.3 µM | (GR)2 concentration (enzyme 10 μg/mL, 5 min): 0.8 µM | (GR)4 concentration (enzyme 10 μg/mL, 5 min): 1.3 µM | (GR)6 concentration (enzyme 10 μg/mL, 5 min): 0.8 µM | (GR)8 concentration (enzyme 10 μg/mL, 5 min): 1.3 µM | (GR)10 concentration (enzyme 10 μg/mL, 5 min): 48.8 µM | (GR)1 concentration (enzyme 10 μg/mL, 10 min): 11.9 µM | (GR)2 concentration (enzyme 10 μg/mL, 10 min): 1.4 µM | (GR)4 concentration (enzyme 10 μg/mL, 10 min): 2.9 µM | (GR)6 concentration (enzyme 10 μg/mL, 10 min): 2.2 µM | (GR)8 concentration (enzyme 10 μg/mL, 10 min): 2.6 µM | (GR)10 concentration (enzyme 10 μg/mL, 10 min): 44.1 µM | (GR)1 concentration (enzyme 10 μg/mL, 30 min): 44.8 µM | (GR)2 concentration (enzyme 10 μg/mL, 30 min): 5.7 µM | (GR)4 concentration (enzyme 10 μg/mL, 30 min): 9.5 µM | (GR)6 concentration (enzyme 10 μg/mL, 30 min): 5.2 µM | (GR)8 concentration (enzyme 10 μg/mL, 30 min): 3.5 µM | (GR)10 concentration (enzyme 10 μg/mL, 30 min): 16.6 µM | (GR)1 concentration (enzyme 10 μg/mL, 60 min): 64.1 µM | (GR)2 concentration (enzyme 10 μg/mL, 60 min): 10.1 µM | (GR)4 concentration (enzyme 10 μg/mL, 60 min): 13.6 µM | (GR)6 concentration (enzyme 10 μg/mL, 60 min): 6.6 µM | (GR)8 concentration (enzyme 10 μg/mL, 60 min): 5.7 µM | (GR)10 concentration (enzyme 10 μg/mL, 60 min): 10.6 µM
B1: Proteinase K: protease that cleaves peptide bonds adjacent to the carboxylic group of aliphatic and aromatic amino acids (protein)
chain: AAQTNAPWGLARISSTSPGTSTYYYDESAGQGSCVYVIDTGIEASHPEFEGRAQMVKTYYYSSRDGNGHGTHCAGTVGSRTYGVAKKTQLFGVKVLDDNGSGQYSTIIAGMDFVASDKNNRNCPKGVVASLSLGGGYSSSVNSAAARLQSSGVMVAVAAGNNNADARNYSPASEPSVCTVGASDRYDRRSSFSNYGSVLDIFGPGTSILSTWIGGSTRSISGTSMATPHVAGLAAYLMTLGKTTAASACRYIADTANKGDLSNIPFGTVNLLAYNNYQA
